Article PMC8280819 (The EMBO Journal, 2021)

Target: His‐SigH (Mycobacterium tuberculosis, UniProt P9WGH8 1-216)
Assay: BLI

Chain of His‐SigH (P9WGH8 whole entry): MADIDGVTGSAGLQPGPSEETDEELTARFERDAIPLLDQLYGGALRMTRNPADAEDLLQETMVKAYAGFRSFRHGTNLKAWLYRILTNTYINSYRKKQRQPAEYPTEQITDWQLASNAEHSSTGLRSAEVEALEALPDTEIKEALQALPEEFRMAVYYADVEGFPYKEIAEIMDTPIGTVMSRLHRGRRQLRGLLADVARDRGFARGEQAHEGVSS

B1: His‐AosR (Rv1332, actinomycetes oxidative stress regulator) (natural protein)
chain: MPPVCGRRCSRTGEIRGYSGSIVRRWKRVETRDGPRFRSSLAPHEAALLKNLAGAMIGLLDDRDSSSPSDELEEITGIKTGHAQRPGDPTLRRLLPDFYRPDDLDDDDPTAVDGSESFNAALRSLHEPEIIDAKRVAAQQLLDTVPDNGGRLELTESDANAWIAAVNDLRLALGVMLEIGPRGPERLPGNHPLAAHFNVYQWLTVLQEYLVLVLMGSR
With B1 the “response, fold over reducing conditions” value was 3 fold.
